The values below are quoted from earlier work in publication PMC4435181.

The target of this data set is HER2 ECD (Homo sapiens) (UniProt P04626). Kind of data set: ELISA.

On to trastuzumab, for which the Kd (usually the free concentration of one partner at which half of the binding sites on the other are occupied at equilibrium, for simple one-to-one binding) is 0.1 nM.
